The target of the data set is EphA2 receptor tyrosine kinase (UniProt P29317).
UniProt P29317, sequence (P29317 whole entry, looked up): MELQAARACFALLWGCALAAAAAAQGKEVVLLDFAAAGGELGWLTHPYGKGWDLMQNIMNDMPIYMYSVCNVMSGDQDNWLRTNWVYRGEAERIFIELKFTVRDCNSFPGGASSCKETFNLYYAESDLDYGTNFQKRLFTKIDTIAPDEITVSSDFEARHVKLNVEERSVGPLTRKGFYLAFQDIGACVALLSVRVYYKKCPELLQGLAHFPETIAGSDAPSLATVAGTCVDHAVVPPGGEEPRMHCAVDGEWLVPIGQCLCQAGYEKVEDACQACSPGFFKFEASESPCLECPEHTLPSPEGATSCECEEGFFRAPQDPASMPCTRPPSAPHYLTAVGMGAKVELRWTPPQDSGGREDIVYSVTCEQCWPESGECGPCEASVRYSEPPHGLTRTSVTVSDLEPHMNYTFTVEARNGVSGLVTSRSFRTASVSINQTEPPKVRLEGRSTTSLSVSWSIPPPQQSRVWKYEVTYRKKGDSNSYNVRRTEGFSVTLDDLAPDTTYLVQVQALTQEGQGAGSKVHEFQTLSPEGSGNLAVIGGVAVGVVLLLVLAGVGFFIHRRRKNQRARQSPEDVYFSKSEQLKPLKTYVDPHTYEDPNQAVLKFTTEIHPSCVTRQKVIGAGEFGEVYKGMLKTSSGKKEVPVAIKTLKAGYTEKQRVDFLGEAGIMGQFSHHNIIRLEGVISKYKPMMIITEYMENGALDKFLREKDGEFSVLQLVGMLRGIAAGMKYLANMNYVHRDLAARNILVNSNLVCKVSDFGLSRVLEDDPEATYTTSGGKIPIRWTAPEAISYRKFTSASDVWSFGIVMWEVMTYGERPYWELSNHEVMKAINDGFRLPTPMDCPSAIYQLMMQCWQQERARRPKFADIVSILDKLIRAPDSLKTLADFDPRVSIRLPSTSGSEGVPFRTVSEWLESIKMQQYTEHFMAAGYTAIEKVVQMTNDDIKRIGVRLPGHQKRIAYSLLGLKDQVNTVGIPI

Take purified LMW-PTP protein: the “dephosphorylation of immunoprecipitated EphA2 (phosphotyrosine Western blot)” value was “the LMW-PTP dephosphorylated EphA2 in an enzyme concentration-dependent and a time-dependent manner”.

Values taken from US20080089931.
